For experiment [1], the target named is T1, cynomolgus CD137 on transfected CHO cells (CHO-cyCD137) (cynomolgus (Macaca fascicularis); human).
T1 construct: extracellular domain;domain: transmembrane and intracellular part; also called cyno CD137
In words: flow cytometry on CHO cells transfected with cynomolgus CD137, PE anti-hIgG detection, MFI normalised 0-100% for each antibody. How it is done:
(§1) Binding and EC50 was determined using flow cytometric of CHO cells transfected with human CD137, cynomolgus CD137 or empty vector. The extracellular part of human or cynomolgus CD137 was fused to the transmembrane and intracellular part of human CD40 and cloned into pcDNA3.1. The vector was subsequently stably transfected into CHO cells. […] CD137-transfected and empty vector-transfected cells were incubated with CD137 antibodies for at least 1 h at 4° C. to saturate the binding. In order to minimize antibody internalization, 0.05% sodium azide was used in the incubation buffer and all work was performed on ice. The CD137 antibodies were detected using PE-conjugated anti-hIgG antibody (109-115-098, Jackson Immunoresearch laboratories), incubated for 30 min at 4° C. Directly after staining the cells were fixed with a paraformaldehyde solution (10× concentrate BD CellFIX, BD biosciences #340181). Cells were analyzed by flow cytometry using FACSVerse (BD Biosciences). The median fluorescence intensity (MFI) for each sample was determined and the dose response data was analysed using Graph Pad Prism.
(§2) MFI data was normalized for each antibody, where 0% is defined as the lowest value and 100% is the highest value in the dose titration for each antibody.
In general terms: In flow cytometry, cells or beads pass a laser one at a time.

Experiment [2] concerns the target T2, human CD137 on transfected CHO cells (CHO-huCD137) (human).
T2 construct: domain: transmembrane and intracellular part
In words: flow cytometry on CHO-huCD137 cells; 95% confidence interval of the EC50. How it is done: as §1, §2

Experiment [3] concerns the target cynomolgus CD137 (Acro Biosystems #41B-C52H4) (cynomolgus, UniProt A9YYE7 24-186). In words: Octet (BLI), antibody amine-coupled to ARG2 biosensor, soluble CD137 as analyte, 1:1 model. How it is done: (§3) Materials and method CD137 affinity was determined using the Octet Red 96 platform (ForteBio). […] 7 2-fold serial dilutions of CD137 (Acro Biosystems #41B-H5227 and #41B-C52H4) from 100 nM was prepared in 1× kinetic buffer (ForteBio #18-1092). Association was measured for 180 s followed by dissociation for 180 s in 1× kinetic buffer. 10 mM Glycine pH 2.2 was used for regeneration.
(§4) Data generated was referenced by reference well subtraction (1188), the baseline was aligned with the y-axis, inter-step correlation by alignment against association was performed and the data was smoothed by a Savitzky-Golay filtering in the data analysis software (v.9.0.0.14). The processed data was fitted using a 1:1 Langmuir binding model with X² as a measurement of fitting accuracy.

Experiment [4] concerns the target human CD137 (Acro Biosystems #41B-H5227) (human, UniProt Q07011 24-186). Described as above. As for the experimental part: as §3, §4
Experiment [5] concerns the target T1, cynomolgus CD137 on transfected CHO …. Briefly: flow cytometry on CHO-cyCD137 cells; 95% confidence interval of the EC50. How it is done:
as §1, §2

Experiment [6] addresses T3, recombinant human CD137-Fc (R&D #838-4B) (human, UniProt Q07011 24-186).
T3 construct: Bought protein coated on ELISA plates; also called CD137 (R&D #838-4B); not shown: Fc part of the commercial fusion protein; not described
Briefly: ELISA, coated human CD137-Fc; mean.

Experiment [7] addresses T3, recombinant human CD137-Fc (R&D #838-4B). Briefly: ELISA, coated CD137 (R&D #838-4B). Background: In an ELISA, binding on a coated surface is turned into a signal by an enzyme label.
Experiment [8] deals with T4, 1554: Human CD137 with mouse domains 3B, 4A and 4B (aa 97-159) (human; mouse, UniProt P20334 96-159).
T4 construct: domain: domains 3B, 4A and 4B (aa 97-159); Human/mouse chimera transiently expressed on FreeStyle 293-F cells
Briefly: flow cytometry on transfected 293-F cells, human/mouse CD137 chimera. How it is done:
(§5) The ability of each antibody to bind to a panel of human/mouse CD137 chimeras expressed on the surface of transfected cells was analyzed by flow cytometry.
(§6) The chimeras were designed by exchanging domains or modules of the human CD137 with the corresponding mouse domain. Genes of CD137 human/mouse chimeras were synthesized (GenScript) and constructs cloned into pcDNA3.1 vector (Invitrogen) and transiently transfected into FreeStyle 293-F cells (Invitrogen). The transfected cells were incubated with CD137 antibodies and control antibodies, followed by incubation with anti-human IgG-PE (Jackson Immunoresearch) for detection and analyzed with FACS Verse (BD Biosciences). Binding to the different chimeric constructs was calculated as relative MFI compared to the binding of the isotype control, followed by normalization to the full-length human CD137 construct to minimize the effect of affinity differences between individual antibodies.

For experiment [9], the target named is T5, 1551: Human CD137 with mouse domains 2A, 2B and 3A (aa 47-96) (human; mouse, UniProt P20334 46-95).
T5 construct: domain: domains 2A, 2B and 3A (aa 47-96); Human/mouse chimera transiently expressed on FreeStyle 293-F cells
Described as above. As for the experimental part:
as §5, §6

Experiment [10] deals with T6, 1553: Human CD137 with mouse domains 3A, 3B and 4A (aa 87-133) (human; mouse, UniProt P20334 86-133).
T6 construct: domain: domains 3A, 3B and 4A (aa 87-133); Human/mouse chimera transiently expressed on FreeStyle 293-F cells
The experiment is described as above. As for the experimental part: as §5, §6

Experiment [11] deals with T7, 1555: Human CD137 with mouse domains 1 and 4B and region of unknown function (aa 24-46 and aa 139-186) (human; mouse, UniProt P20334 24-45; P20334 139-185).
T7 construct: Human/mouse chimera transiently expressed on FreeStyle 293-F cells
Described as above. As for the experimental part:
as §5, §6

The target of experiment [12] is T8, 1550: Human CD137 with mouse domains 1, 2A and 2B (aa 24-86) (human; mouse, UniProt P20334 24-85).
T8 construct: domain: domains 1, 2A and 2B (aa 24-86); Human/mouse chimera transiently expressed on FreeStyle 293-F cells; Limits of the human pieces are worked out from the printed aa range
Described as above. How it is done:
as §5, §6

The term EC50 (read off the curve) denotes the midpoint of the concentration-response curve. A higher EC50 (read off the curve) goes with lower potency in that assay. A word on the EC50: it is the concentration needed to bring the measured effect to its halfway point. As a reminder, the Kd is the constant that tells how readily two partners part at equilibrium. Read a high Kd as lower affinity. One may read the koff as the rate constant with which the complex falls apart. Broadly, the kon is the rate constant with which the complex forms. Higher therefore signals fast association.

Sequence of human CD137 (Acro Biosystems #41B-H5227) (Q07011 24-186 limits assumed): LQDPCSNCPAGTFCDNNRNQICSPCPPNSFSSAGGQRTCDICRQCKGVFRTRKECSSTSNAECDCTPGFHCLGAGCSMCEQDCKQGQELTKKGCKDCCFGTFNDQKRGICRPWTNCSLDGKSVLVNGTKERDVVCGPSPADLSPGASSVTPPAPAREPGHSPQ
Sequence of cynomolgus CD137 (Acro Biosystems #41B-C52H4) (A9YYE7 entry or part of it): as the sequence (Q07011 24-186 limits assumed) above, with P4L, N19S, R50K, T66I, P67S, F69Y, G75E, V149A counted along it
T1 sequence (P25942 other isoform, or with tags, fused parts or gaps): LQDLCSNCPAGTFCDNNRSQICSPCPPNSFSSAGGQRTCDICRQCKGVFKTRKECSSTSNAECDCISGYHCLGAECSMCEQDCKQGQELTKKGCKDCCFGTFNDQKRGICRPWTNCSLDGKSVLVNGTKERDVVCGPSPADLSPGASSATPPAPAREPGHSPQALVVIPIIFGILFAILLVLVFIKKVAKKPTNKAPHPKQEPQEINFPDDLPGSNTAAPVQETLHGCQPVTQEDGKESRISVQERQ
T3 sequence (Q07011 24-186 limits assumed): as the sequence (Q07011 24-186 limits assumed) above
T5 sequence (P20334 other isoform, or with tags, fused parts or gaps limits assumed): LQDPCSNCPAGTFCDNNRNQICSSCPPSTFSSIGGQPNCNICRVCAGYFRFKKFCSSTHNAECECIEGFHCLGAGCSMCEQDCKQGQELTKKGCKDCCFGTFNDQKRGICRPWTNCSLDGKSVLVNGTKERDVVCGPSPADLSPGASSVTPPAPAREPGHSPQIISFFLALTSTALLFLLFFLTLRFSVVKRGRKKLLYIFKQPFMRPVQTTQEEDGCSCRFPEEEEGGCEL
T7 sequence (P20334 other isoform, or with tags, fused parts or gaps limits assumed): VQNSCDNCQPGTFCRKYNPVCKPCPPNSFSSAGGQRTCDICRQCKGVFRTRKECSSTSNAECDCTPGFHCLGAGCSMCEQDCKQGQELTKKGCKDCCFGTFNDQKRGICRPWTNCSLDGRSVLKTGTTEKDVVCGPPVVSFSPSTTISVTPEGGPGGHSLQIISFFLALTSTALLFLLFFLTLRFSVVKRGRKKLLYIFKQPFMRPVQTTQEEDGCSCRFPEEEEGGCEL
T6 sequence (P20334 other isoform, or with tags, fused parts or gaps limits assumed): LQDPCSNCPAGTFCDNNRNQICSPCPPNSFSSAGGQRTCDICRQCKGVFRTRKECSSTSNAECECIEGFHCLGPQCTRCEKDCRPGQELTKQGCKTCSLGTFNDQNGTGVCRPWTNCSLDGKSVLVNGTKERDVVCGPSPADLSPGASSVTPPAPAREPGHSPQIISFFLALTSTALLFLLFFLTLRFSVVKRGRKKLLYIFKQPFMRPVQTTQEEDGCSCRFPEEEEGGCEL
T2 sequence (P25942 other isoform, or with tags, fused parts or gaps limits assumed): as the sequence (P25942 other isoform, or with tags, fused parts or gaps) above, with L4P, S19N, K50R, I66T, S67P, Y69F, E75G, A149V counted along it
T4 sequence (P20334 other isoform, or with tags, fused parts or gaps limits assumed): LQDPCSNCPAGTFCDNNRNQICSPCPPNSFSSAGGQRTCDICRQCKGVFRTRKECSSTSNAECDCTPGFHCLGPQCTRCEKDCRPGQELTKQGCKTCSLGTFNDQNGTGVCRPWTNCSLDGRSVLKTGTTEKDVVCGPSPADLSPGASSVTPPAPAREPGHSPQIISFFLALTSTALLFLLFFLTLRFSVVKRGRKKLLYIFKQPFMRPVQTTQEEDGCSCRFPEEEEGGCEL
T8 sequence (P20334 other isoform, or with tags, fused parts or gaps limits assumed): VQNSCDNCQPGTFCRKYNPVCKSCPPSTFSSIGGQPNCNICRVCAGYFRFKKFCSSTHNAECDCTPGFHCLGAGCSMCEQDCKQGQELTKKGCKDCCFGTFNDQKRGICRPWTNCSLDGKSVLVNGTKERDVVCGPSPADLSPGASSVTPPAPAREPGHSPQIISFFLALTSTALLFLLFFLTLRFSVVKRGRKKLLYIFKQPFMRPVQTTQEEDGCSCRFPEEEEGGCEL

B1: 1630/1631 (antibody, human IgG4 S228P, kappa, V domains shown)
VH: EVQLLESGGGLVQPGGSLRLSCAASGFTFGYSYMSWVRQAPGKGLEWVSSIGSGSSYTYYADSVKGRFTISRDNSKNTLYLQMNSLRAEDTAVYYCARVYSSPGIDYWGQGTLVTVSS
VL: DIQMTQSPSSLSASVGDRVTITCRASQSISSYLNWYQQKPGKAPKLLIYAASSLQSGVPSRFSGSGSGTDFTLTISSLQPEDFATYYCQQYYTWVPFTFGQGTKLEIKR
notes: the format in each assay is not restated
As to B1, in [1], the “EC50 (read off the curve)” value is around 0.1 µg/mL. The EC50 in experiment [2] was 0.17 to 0.26 µg/mL; in [5], 0.55 to 0.87 nM; in experiment [6], 0.27 nM; in experiment [7], 0.4 nM. Also, the results for the Kd in [3] and in [4] were 18 nM and 14 nM, respectively. Further, the koff in experiment [3] was found to be 0.0025 s⁻¹; in experiment [4] it was 0.0023 s⁻¹. For the same molecule, the kon in experiment [3] came out at 140000 M⁻¹ s⁻¹; in experiment [4], 160000 M⁻¹ s⁻¹. In addition, the “MFI antibody/isotype control, normalized to full-length human CD137” value in [8] amounted to 0.85; in experiment [9], 0.1; in experiment [10], 0.91; in experiment [11] it was 0.35; in [12], 0.11.

(Values after US20190352411A1 (ALLIGATOR BIOSCIENCE, published 2019).)
